# From the nanobody polyreactivity screen of Harvey et al. (2022)
# Assay: yeast display, Sf9 membrane polyspecificity reagent, FACS + sequencing; frameworks hold sequencing errors
# Method in brief: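 Galactose induction of a Saccharomyces cerevisiae BJ5465 synthetic nanobody display library ran 36–48 hours. The cells were then stained for 1 hour at 4 °C with 10% biotinylated, detergent-solubilized Sf9 membrane reagent, pulled down on streptavidin microbeads and FACS-sorted into low and high (top ~1%) gates on expression and reagent-binding fluorescence. Labels for polyreactivity follow the gate of origin.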
row,Sequence,polyreactivity (PSR sort gate)
1,QVQLVESGGGLVQAGGSLRLSCAASGRIFYYNAMGWYRQAPGKERELVAAITSGGSTNYADSVKGRFSISRDNAKNTVYLQMNSLNPEDTAVYYCAADYYYYVAGVHYDYWGQGTQVTVSS,low polyreactivity
2,QVQLVESGGGLVQAGGSLRLSCAASGRIFYYNAMGWYRQAPGKERELVAAITYSGTSTYYADSVKGRFTISRDNAKNTVYLQMNSLKPEDSAVYYCAVDSTDQAPPTYDYWGQGTQVTVSS,low polyreactivity
3,QVQLVESGGGLVQAGGSLRLSCAASGRIFYYNAMGWYRQAPGKERELVAGITSRGRSTYADSVKGRFTISRDNAKNTVYLQMNSLKPEDTAVYYCAAVYRLWGKDYDYWGQGTQVTVSS,high polyreactivity
4,QVQLVESGGGLVQAGGSLRLSCAASGRIFYYNAMGWYRQAPGKERELVASITGSGGSTYYADSVKGRFTISRDNAKNTVYLQMNSLKPEDTAVYYCANREYLYPYYYVAKYDYWGQGTQVTVSS,low polyreactivity
5,QVQLVESGGGLVQAGGSLRLSCAASGRIFYYNDMGWYRQAPGKERELVAAITWTDDGTYYADSVKGRFTISRDNAKNTVFLQMNSLKPEDTAVYYCAAESFYGFEYWGQGTQVTVSS,low polyreactivity
6,QVQLVESGGGLVQAGGSLRLSCAASGRIFYYNSKGWYRQAPGKERELVAAITSGDNTKYADSVKGRFTISRDKAKNTVYLQMNSLKPEDTAVYYCAARRYAPYQRRMDYWGQGTQVTVSS,high polyreactivity
7,QVQLVESGGGLVQAGGSLRLSCAASGRIFYYNTMGWYRQAPGKERELVAAITTNGGSTYYADSVKGRFTISRDNAKNTVYLQMNSLKPLDTAVYYCKRDRYPYYYAYNYWGQGTQVTVSS,low polyreactivity
8,QVQLVESGGGLVQAGGSLRLSCAASGRIFYYYAMGWYRQAPGKEREFVAAISQRGGSTSYADSVKGRFTISRDNAKNTVYLQMNSLKPEDTAVYYCAAEYYLRVSGRTYVTSHDYWGQGTQVTVSS,high polyreactivity
9,QVQLVESGGGLVQAGGSLRLSCAASGRIFYYYAMGWYRQAPGKEREFVADISARGGSTYYADSVKGRFTISRDNAKNTVYLQMNSLKPEDTAVYYCAATTGLYTRYGYWGQGTQVTVSS,high polyreactivity
10,QVQLVESGGGLVQAGGSLRLSCAASGRIFYYYAMGWYRQAPGKERELLAAITRGGGTYYADSVKGRFTISRDNAKNTVYLQMNSLKPEDTAVYYCAKRGPPESHHPYRYRFDYWGKGTQVTVSS,low polyreactivity
11,QVQLVESGGGLVQAGGSLRLSCAASGRIFYYYAMGWYRQAPGKERELVAAISASGASTYYADSVKGRFTISRDNAKNTVYLQMNSLKPEDTAVYYCAAEEFYYYSADWYDYWGQGTQVTVSS,high polyreactivity
12,QVQLVESGGGLVQAGGSLRLSCAASGRIFYYYAMGWYRQAPGKERELVAAISWSGVNTYYADSVKGRFTISRDNAKNTVYLQMNSLKPEDTAVYYCAAGFAYKYSKGFWSDYWGQGTQVTVSS,high polyreactivity
13,QVQLVESGGGLVQAGGSLRLSCAASGRIFYYYAMGWYRQAPGKERELVAAITRGDSTTYADSVKGRFTISRDNAKNTVYLKMNILKPEDTAVYYCNAGRGTFKRYTALQYWGQGTQVTVSS,low polyreactivity
14,QVQLVESGGGLVQAGGSLRLSCAASGRIFYYYAMGWYRQAPGKERELVAGIDSGDSTNYADSVKGRFTISRDNAKYTVYLQMNSLKPEDTAVYYCAALHFGGYFSYYPYYYWGQGTQVTVSS,low polyreactivity
15,QVQLVESGGGLVQAGGSLRLSCAASGRIFYYYAMGWYRQAPGKERELVATISGIGGSTYYADSVKGRFTISRDNAKNTVYLQMNSLKPEDTAVYFCTADYPTSYPLFKSGFDYWGQGTQVTVSS,low polyreactivity
16,QVQLVESGGGLVQAGGSLRLSCAASGRIFYYYAMGWYRQAPGKERELVAVISRGGRTKYADSVKGRFTISRDNAKNTVYLQMNSLKPEDTAVYYCAAYPSYYGDSGLRYDYWGQGTQVTVSS,high polyreactivity
17,QVQLVESGGGLVQAGGSLRLSCAASGRIFYYYGMGWYRQAPGKERELVAAISNGGRTYYADSVKGRFTISRDNAKNTVYLQMNSLKPEDTAVDYCAALTRGRGGYDYWGQGTQVTVSS,high polyreactivity
